Experiment in all cases: single-molecule colocalisation on microtubules
Assay [1] concerns the target T1, full-length human kinesin-1 heavy chain (KIF5B) (human, UniProt P33176 1-963, LD555, LD655 or Alexa488 label (imaging assays)).
T1 sequence (looked up): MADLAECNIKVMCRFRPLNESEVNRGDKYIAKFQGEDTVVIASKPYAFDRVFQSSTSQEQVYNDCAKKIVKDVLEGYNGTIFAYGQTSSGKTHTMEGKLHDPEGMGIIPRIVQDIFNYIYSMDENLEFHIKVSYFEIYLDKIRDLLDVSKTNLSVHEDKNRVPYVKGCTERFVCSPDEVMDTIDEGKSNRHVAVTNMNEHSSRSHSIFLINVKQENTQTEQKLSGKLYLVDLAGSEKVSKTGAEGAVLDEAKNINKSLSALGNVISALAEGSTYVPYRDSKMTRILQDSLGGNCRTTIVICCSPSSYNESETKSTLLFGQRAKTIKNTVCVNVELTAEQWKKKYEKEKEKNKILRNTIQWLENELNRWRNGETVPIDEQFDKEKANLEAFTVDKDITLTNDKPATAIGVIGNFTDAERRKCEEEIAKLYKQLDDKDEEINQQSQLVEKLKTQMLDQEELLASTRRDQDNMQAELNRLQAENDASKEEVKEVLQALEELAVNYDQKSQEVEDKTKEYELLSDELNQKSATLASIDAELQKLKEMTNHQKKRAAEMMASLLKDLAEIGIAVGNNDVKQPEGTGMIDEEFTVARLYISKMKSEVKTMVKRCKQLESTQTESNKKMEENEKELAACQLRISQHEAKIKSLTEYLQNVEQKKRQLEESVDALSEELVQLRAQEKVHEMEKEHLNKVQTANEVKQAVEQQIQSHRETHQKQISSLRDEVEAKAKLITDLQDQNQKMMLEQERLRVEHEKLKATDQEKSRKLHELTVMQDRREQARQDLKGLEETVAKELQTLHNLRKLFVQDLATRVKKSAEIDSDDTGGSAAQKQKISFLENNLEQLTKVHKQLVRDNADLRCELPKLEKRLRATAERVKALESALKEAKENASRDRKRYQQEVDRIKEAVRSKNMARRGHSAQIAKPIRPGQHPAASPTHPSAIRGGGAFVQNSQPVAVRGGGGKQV

The target of the next assay is T2, KIF5B^Δ1-336 (human, UniProt P33176 337-963).
T2 sequence (looked up): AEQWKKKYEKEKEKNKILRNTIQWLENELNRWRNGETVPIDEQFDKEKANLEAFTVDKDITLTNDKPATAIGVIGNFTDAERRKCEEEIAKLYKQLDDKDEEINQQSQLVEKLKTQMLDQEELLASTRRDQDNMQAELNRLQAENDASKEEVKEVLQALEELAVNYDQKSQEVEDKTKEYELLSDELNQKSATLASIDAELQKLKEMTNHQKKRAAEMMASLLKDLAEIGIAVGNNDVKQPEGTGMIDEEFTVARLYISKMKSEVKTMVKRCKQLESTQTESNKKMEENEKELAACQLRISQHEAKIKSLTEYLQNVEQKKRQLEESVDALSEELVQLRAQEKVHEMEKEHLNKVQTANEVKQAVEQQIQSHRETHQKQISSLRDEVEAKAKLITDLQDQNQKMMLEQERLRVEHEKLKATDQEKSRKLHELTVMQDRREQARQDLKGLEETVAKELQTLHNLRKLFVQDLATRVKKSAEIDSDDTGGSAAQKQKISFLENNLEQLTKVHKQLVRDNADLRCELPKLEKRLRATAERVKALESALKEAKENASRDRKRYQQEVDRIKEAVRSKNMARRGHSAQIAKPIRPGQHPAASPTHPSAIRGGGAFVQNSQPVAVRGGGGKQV

For assay [2], the target named is T1, full-length human kinesin-1 heavy chain …. This is another data set of the same source.

Read-outs that look alike come from different tables or passages of the source.

B1: TRAK1^1-400 (domain or fragment, human, UniProt Q9UPV9 1-400, looked up)
chain: MALVFQFGQPVRAQPLPGLCHGKLIRTNACDVCNSTDLPEVEIISLLEEQLPHYKLRADTIYGYDHDDWLHTPLISPDANIDLTTEQIEETLKYFLLCAERVGQMTKTYNDIDAVTRLLEEKERDLELAARIGQSLLKKNKTLTERNELLEEQVEHIREEVSQLRHELSMKDELLQFYTSAAEESEPESVCSTPLKRNESSSSVQNYFHLDSLQKKLKDLEEENVVLRSEASQLKTETITYEEKEQQLVNDCVKELRDANVQIASISEELAKKTEDAARQQEEITHLLSQIVDLQKKAKACAVENEELVQHLGAAKDAQRQLTAELRELEDKYAECMEMLHEAQEELKNLRNKTMPNTTSRRYHSLGLFPMDSLAAEIEGTMRKELQLEEAESPDITHQK
modifications: LD555 or LD655 dye on the SNAP tag
Take B1: the binding result (in assay [1]; in the assay with KIF5B^Δ1-336) was “binds” in each case.

B2: TRAK1^1-532 (domain or fragment, human, UniProt Q9UPV9 1-532, looked up)
chain: MALVFQFGQPVRAQPLPGLCHGKLIRTNACDVCNSTDLPEVEIISLLEEQLPHYKLRADTIYGYDHDDWLHTPLISPDANIDLTTEQIEETLKYFLLCAERVGQMTKTYNDIDAVTRLLEEKERDLELAARIGQSLLKKNKTLTERNELLEEQVEHIREEVSQLRHELSMKDELLQFYTSAAEESEPESVCSTPLKRNESSSSVQNYFHLDSLQKKLKDLEEENVVLRSEASQLKTETITYEEKEQQLVNDCVKELRDANVQIASISEELAKKTEDAARQQEEITHLLSQIVDLQKKAKACAVENEELVQHLGAAKDAQRQLTAELRELEDKYAECMEMLHEAQEELKNLRNKTMPNTTSRRYHSLGLFPMDSLAAEIEGTMRKELQLEEAESPDITHQKRVFETVRNINQVVKQRSLTPSPMNIPGSNQSSAMNSLLSSCVSTPRSSFYGSDIGNVVLDNKTNSIILETEAADLGNDERSKKPGTPGTPGSHDLETALRRLSLRRENYLSERRFFEEEQERKLQELAEKGE
modifications: LD555 dye on the SNAP tag (imaging assays)
In the case of B2, the binding result in assay [2] is reported as “binds”.

The values are drawn from paper doi:10.1101/2021.07.30.454553 (bioRxiv, 2021).
